B1: Breast cancer anti-estrogen resistance protein 3 (Homo sapiens), O75815-1 (parent)
chain: MAAGKFASLPRNMPVNHQFPLASSMDLLSSRSPLAEHRPDAYQDVSIHGTLPRKKKGPPPIRSCDDFSHMGTLPHSKSPRQNSPVTQDGIQESPWQDRHGETFTFRDPHLLDPTVEYVKFSKERHIMDRTPEKLKKELEEELLLSSEDLRSHAWYHGRIPRQVSENLVQRDGDFLVRDSLSSPGNFVLTCQWKNLAQHFKINRTVLRLSEAYSRVQYQFEMESFDSIPGLVRCYVGNRRPISQQSGAIIFQPINRTVPLRCLEEHYGTSPGQAREGSLTKGRPDVAKRLSLTMGGVQAREQNLPRGNLLRNKEKSGSQPACLDHMQDRRALSLKAHQSESYLPIGCKLPPQSSGVDTSPCPNSPVFRTGSEPALSPAVVRRVSSDARAGEALRGSDSQLCPKPPPKPCKVPFLKVPSSPSAWLNSEANYCELNPAFATGCGRGAKLPSCAQGSHTELLTAKQNEAPGPRNSGVNYLILDDDDRERPWEPAAAQMEKGQWDKGEFVTPLLETVSSFRPNEFESKFLPPENKPLETAMLKRAKELFTNNDPKVIAQHVLSMDCRVARILGVSEEMRRNMGVSSGLELITLPHGHQLRLDIIERHNTMAIGIAVDILGCTGTLEDRAATLSKIIQVAVELKDSMGDLYSFSALMKALEMPQITRLEKTWTALRHQYTQTAILYEKQLKPFSKLLHEGRESTCVPPNNVSVPLLMPLVTLMERQAVTFEGTDMWEKNDQSCEIMLNHLATARFMAEAADSYRMNAERILAGFQPDEEMNEICKTEFQMRLLWGSKGAQVNQTERYEKFNQILTALSRKLEPPPVKQAEL
partner: B1 chain
B2: Breast cancer metastasis-suppressor 1 (Homo sapiens), Q9HCU9 (parent)
chain: MPVQPPSKDTEEMEAEGDSAAEMNGEEEESEEERSGSQTESEEESSEMDDEDYERRRSECVSEMLDLEKQFSELKEKLFRERLSQLRLRLEEVGAERAPEYTEPLGGLQRSLKIRIQVAGIYKGFCLDVIRNKYECELQGAKQHLESEKLLLYDTLQGELQERIQRLEEDRQSLDLSSEWWDDKLHARGSSRSWDSLPPSKRKKAPLVSGPYIVYMLQEIDILEDWTAIKKARAAVSPQKRKSDGP
partner: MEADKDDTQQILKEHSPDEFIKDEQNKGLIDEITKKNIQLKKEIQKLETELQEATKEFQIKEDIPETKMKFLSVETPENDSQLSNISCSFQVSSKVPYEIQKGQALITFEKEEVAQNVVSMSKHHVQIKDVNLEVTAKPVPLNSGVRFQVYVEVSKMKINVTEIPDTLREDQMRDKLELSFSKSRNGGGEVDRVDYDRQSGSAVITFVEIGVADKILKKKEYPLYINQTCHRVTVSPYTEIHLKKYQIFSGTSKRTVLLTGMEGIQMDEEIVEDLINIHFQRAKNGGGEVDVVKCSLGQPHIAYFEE
B3: Zinc finger protein Aiolos (Homo sapiens), Q9UKT9 (parent)
chain: MEDIQTNAELKSTQEQSVPAESAAVLNDYSLTKSHEMENVDSGEGPANEDEDIGDDSMKVKDEYSERDENVLKSEPMGNAEEPEIPYSYSREYNEYENIKLERHVVSFDSSRPTSGKMNCDVCGLSCISFNVLMVHKRSHTGERPFQCNQCGASFTQKGNLLRHIKLHTGEKPFKCHLCNYACQRRDALTGHLRTHSVEKPYKCEFCGRSYKQRSSLEEHKERCRTFLQSTDPGDTASAEARHIKAEMGSERALVLDRLASNVAKRKSSMPQKFIGEKRHCFDVNYNSSYMYEKESELIQTRMMDQAINNAISYLGAEALRPLVQTPPAPTSEMVPVISSMYPIALTRAEMSNGAPQELEKKSIHLPEKSVPSERGLSPNNSGHDSTDTDSNHEERQNHIYQQNHMVLSRARNGMPLLKEVPRSYELLKPPPICPRDSVKVINKEGEVMDVYRCDHCRVLFLDYVMFTIHMGCHGFRDPFECNMCGYRSHDRYEFSSHIARGEHRALLK
partner: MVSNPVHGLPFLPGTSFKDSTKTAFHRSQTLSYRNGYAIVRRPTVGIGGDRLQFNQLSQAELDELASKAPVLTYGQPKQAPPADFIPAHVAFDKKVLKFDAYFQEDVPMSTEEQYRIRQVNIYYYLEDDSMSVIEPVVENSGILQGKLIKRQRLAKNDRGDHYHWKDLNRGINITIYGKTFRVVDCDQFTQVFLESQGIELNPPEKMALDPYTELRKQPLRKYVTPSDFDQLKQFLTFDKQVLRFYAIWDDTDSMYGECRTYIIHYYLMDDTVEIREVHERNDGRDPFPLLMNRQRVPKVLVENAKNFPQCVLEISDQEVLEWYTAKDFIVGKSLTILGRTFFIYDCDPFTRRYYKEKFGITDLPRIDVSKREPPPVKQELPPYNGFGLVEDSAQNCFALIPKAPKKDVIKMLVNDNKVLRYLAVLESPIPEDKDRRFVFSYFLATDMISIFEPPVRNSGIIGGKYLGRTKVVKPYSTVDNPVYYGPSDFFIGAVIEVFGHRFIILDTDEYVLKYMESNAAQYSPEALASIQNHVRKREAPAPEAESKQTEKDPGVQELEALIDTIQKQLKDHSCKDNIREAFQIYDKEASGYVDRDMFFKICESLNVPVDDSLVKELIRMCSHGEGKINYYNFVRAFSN
B4: Protein LDOC1 (Homo sapiens), O95751 (parent)
chain: MVDELVLLLHALLMRHRALSIENSQLMEQLRLLVCERASLLRQVRPPSCPVPFPETFNGESSRLPEFIVQTASYMLVNENRFCNDAMKVAFLISLLTGEAEEWVVPYIEMDSPILGDYRAFLDEMKQCFGWDDDEDDDDEEEEDDY
partner: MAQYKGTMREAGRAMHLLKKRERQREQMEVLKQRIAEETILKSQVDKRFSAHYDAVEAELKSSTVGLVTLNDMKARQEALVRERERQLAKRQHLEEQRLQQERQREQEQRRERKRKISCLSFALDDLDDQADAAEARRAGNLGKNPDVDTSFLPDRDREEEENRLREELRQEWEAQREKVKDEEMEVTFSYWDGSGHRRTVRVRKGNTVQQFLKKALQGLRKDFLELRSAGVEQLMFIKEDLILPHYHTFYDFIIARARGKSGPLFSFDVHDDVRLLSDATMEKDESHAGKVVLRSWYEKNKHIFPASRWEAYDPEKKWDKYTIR

One assay covers variants of B1. The settings on record: with bcar3_human BCAR3, O75815.
In the case of P404S, the “effect of a mutation on the interaction” value was “with no effect”.

In the next assay the parent is B2. As to conditions: with nmi_human NMI.
In the case of S7G, the “effect of a mutation on the interaction” value is on record as “with no effect”.

The variants in another assay derive from B3. As to conditions: with efhc1_human EFHC1, Q5JVL4.
Regarding N119D, the “effect of a mutation on the interaction” value is “with no effect”. Consider A24V, for which the “effect of a mutation on the interaction” value is reported as “with no effect”.

In another assay the parent is B4. The settings on record: with fa50b_human FAM50B.
Regarding L12H, the “effect of a mutation on the interaction” value is “disrupting interaction strength”.

The values above are taken from IntAct's records for PubMed 31515488.
